Holding throughout (assay): FRET or BRET; sensitized emission FRET in the nucleus of living HeLa cells transfected with CFP and YFP fusion vectors; mean FRET efficiency of cells above a 5% threshold
What all share (details): partners not purified
For orientation: Bioluminescence resonance energy transfer reports proximity on the nanometre scale.

For one assay, the target named is T1, YFP-TAF10 (human, UniProt Q12962 1-218).
T1 construct: human TAF10 as a YFP fusion; vector described in earlier work; source: HeLa cells, transfected, in living cells

For a further assay, the target named is T2, YFP-SPT7L (human, UniProt O94864 1-414).
T2 construct: human SPT7L as a YFP fusion; vector described in earlier work; source: HeLa cells, transfected, in living cells
T2 sequence (looked up): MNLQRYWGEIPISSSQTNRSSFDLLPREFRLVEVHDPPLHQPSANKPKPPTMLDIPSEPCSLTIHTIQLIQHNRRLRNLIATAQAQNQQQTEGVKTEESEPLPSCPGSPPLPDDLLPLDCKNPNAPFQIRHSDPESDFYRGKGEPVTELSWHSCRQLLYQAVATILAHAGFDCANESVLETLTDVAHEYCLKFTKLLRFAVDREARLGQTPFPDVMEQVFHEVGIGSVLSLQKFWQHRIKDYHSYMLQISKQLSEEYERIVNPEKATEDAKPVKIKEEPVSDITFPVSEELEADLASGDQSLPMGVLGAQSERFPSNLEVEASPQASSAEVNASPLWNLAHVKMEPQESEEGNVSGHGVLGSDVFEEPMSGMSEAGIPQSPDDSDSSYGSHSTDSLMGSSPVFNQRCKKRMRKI

For the next assay, the target named is T3, YFP-TAF9 (UniProt Q16594 1-264).
T3 construct: TAF9 as a YFP fusion; the construct is not described; source: HeLa cells, transfected, in living cells
T3 sequence (looked up): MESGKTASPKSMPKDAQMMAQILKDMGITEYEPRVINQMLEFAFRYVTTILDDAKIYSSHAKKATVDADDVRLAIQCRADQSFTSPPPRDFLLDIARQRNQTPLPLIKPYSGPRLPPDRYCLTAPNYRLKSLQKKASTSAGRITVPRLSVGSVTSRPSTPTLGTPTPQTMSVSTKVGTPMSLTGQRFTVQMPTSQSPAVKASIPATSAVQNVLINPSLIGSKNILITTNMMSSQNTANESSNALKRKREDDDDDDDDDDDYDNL

T1 sequence (Q12962 whole entry, the tested form may be a part): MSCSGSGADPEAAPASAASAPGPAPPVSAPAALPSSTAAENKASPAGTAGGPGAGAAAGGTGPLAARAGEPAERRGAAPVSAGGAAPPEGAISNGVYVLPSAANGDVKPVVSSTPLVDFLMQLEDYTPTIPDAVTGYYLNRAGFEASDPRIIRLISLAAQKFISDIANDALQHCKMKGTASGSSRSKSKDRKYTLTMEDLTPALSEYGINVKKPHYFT

B1: CFP-TAF8 (natural protein, UniProt Q7Z7C8 1-310, looked up)
chain: MADAAATAGAGGSGTRSGSKQSTNPADNYHLARRRTLQVVVSSLLTEAGFESAEKASVETLTEMLQSYISEIGRSAKSYCEHTARTQPTLSDIVVTLVEMGFNVDTLPAYAKRSQRMVITAPPVTNQPVTPKALTAGQNRPHPPHIPSHFPEFPDPHTYIKTPTYREPVSDYQVLREKAASQRRDVERALTRFMAKTGETQSLFKDDVSTFPLIAARPFTIPYLTALLPSELEMQQMEETDSSEQDEQTDTENLALHISMEDSGAEKENTSVLQQNPSLSGSRNGEENIIDNPYLRPVKKPKIRRKKSLS
notes: TAF8 as a CFP fusion; vector described in earlier work; source: HeLa cells, transfected, in living cells
Consider B1, for which the FRET efficiency with YFP-TAF10 stood at 16.9%; with YFP-SPT7L, 15.8%.

B2: CFP-TAF6 (natural protein)
chain: not shown
notes: TAF6 as a CFP fusion; the construct is not described; source: HeLa cells, transfected, in living cells
Turning to B2, the FRET efficiency with YFP-TAF9 came to 27.1%.
